Test results as given in US9839701B2, “Aromatic amino acid derivative and positron emission topography (PET) probe using the same” (OSAKA UNIVERSITY, priority 2013, dated 2017).

Substrate: N[C@@H](Cc1ccc(O)cc1)C(=O)O
Assay: Promoting effect on amino acid efflux from human LAT2 stably expressing cell line
Type: cell-based
Settings: other: Km for amino acid efflux, Table 7; 37.0 °C
Description: In the same manner as in Example 3, the human LAT1 stably expressing cell line and the human LAT2 stably expressing cell line were seeded on separate collagen-coated 24-well plates, and after 48 hours, the cells were washed with an uptake buffer prewarmed at 37° C. An uptake buffer supplemented with 1 μM of [^14C]L-leucine or [^14C]L-alanine was added to each well, and [^14C]L-leucine or [^14C]L-alanine uptake by the cells was allowed to proceed at 37° C. for 10 minutes. The cells were washed with an uptake buffer prewarmed at 37° C., treated with the compound of Example 1 or the positive control FAMT at 1, 2, 3, 5, 10, 20, 50, 100 or 200 μM, and incubated at 37° C. for 1 minute, and the supernatants were collected. The radioactivity in each supernatant was measured as the radioactivity of the amino acid released from the cells. Subsequently, 500 μL of 0.1 M NaOH was added to each well for cell lysis, 20 μL of the lysate was used for the measurement of the protein concentration, and the remaining lysate was used for the measurement of the residual radioactivity in the cells. The sum of the residual radioactivity and the released radioactivity in each experiment was checked to confirm that there was no great difference in the total radioactivity incorporated into the cells at the preloading among the experiments. […]

B1: human LAT2 (Homo sapiens) (protein)
chain: MEEGARHRNNTEKKHPGGGESDASPEAGSGGGGVALKKEIGLVSACGIIVGNIIGSGIFVSPKGVLENAGSVGLALIVWIVTGFITVVGALCYAELGVTIPKSGGDYSYVKDIFGGLAGFLRLWIAVLVIYPTNQAVIALTFSNYVLQPLFPTCFPPESGLRLLAAICLLLLTWVNCSSVRWATRVQDIFTAGKLLALALIIIMGIVQICKGEYFWLEPKNAFENFQEPDIGLVALAFLQGSFAYGGWNFLNYVTEELVDPYKNLPRAIFISIPLVTFVYVFANVAYVTAMSPQELLASNAVAVTFGEKLLGVMAWIMPISVALSTFGGVNGSLFTSSRLFFAGAREGHLPSVLAMIHVKRCTPIPALLFTCISTLLMLVTSDMYTLINYVGFINYLFYGVTVAGQIVLRWKKPDIPRPIKINLLFPIIYLLFWAFLLVFSLWSEPVVCGIGLAIMLTGVPVYFLGVYWQHKPKCFSDFIELLTLVSQKMCVVVYPEVERGSGTEEANEDMEEQQQPMYQPTPTKDKDVAGQPQP
notes: expressed in transfected cells
  Km: 32.7 µM
